{"source": "patent US20120245117A1", "about": "“METHODS OF TREATING SQUAMOUS CELL LUNG CANCER WITH 4-IODO-3-NITROBENZAMIDE IN COMBINATION WITH GEMCITABINE AND CARBOPLATIN” (priority 2011, published 2012)", "origin": "cited, not measured here", "tested_on": "SqCLC", "settings": "SqCLC patients; combination with carboplatin/paclitaxel; cited from earlier work", "data": [{"molecule": "CP-751,871: an anti-IGF-1R monoclonal antibody (antibody, chains of the INN, looked up) heavy: EVQLLESGGGLVQPGGSLRLSCTASGFTFSSYAMNWVRQAPGKGLEWVSAISGSGGTTFYADSVKGRFTISRDNSRTTLYLQMNSLRAEDTAVYYCAKDLGWSDSYYYYYGMDVWGQGTTVTVSSASTKGPSVFPLAPCSRSTSESTAALGCLVKDYFPEPVTVSWNSGALTSGVHTFPAVLQSSGLYSLSSVVTVPSSNFGTQTYTCNVDHKPSNTKVDKTVERKCCVECPPCPAPPVAGPSVFLFPPKPKDTLMISRTPEVTCVVVDVSHEDPEVQFNWYVDGVEVHNAKTKPREEQFNSTFRVVSVLTVVHQDWLNGKEYKCKVSNKGLPAPIEKTISKTKGQPREPQVYTLPPSREEMTKNQVSLTCLVKGFYPSDIAVEWESNGQPENNYKTTPPMLDSDGSFFLYSKLTVDKSRWQQGNVFSCSVMHEALHNHYTQKSLSLSPG light: DIQMTQFPSSLSASVGDRVTITCRASQGIRNDLGWYQQKPGKAPKRLIYAASRLHRGVPSRFSGSGSGTEFTLTISSLQPEDFATYYCLQHNSYPCSFGQGTKLEIKRTVAAPSVFIFPPSDEQLKSGTASVVCLLNNFYPREAKVQWKVDNALQSGNSQESVTEQDSKDSTYSLSSTLTLSKADYEKHKVYACEVTHQGLSSPVTKSFNRGEC", "values": [{"measurement": "response rate", "value": "~78", "unit": "%"}, {"measurement": "toxicity", "value": "strong toxicity"}]}]}
